Results: article PMC7201719

Columns and labels:
[1] = target: Heat shock cognate 71 kDa protein (chicken (endogenous in DF-1)) (UniProt O73885)
[2] = target: Heat shock cognate 71 kDa protein (chicken (endogenous in DF-1)) (UniProt O73885); remark: listed apart in the source

Sequence of UniProt O73885 (O73885 whole entry): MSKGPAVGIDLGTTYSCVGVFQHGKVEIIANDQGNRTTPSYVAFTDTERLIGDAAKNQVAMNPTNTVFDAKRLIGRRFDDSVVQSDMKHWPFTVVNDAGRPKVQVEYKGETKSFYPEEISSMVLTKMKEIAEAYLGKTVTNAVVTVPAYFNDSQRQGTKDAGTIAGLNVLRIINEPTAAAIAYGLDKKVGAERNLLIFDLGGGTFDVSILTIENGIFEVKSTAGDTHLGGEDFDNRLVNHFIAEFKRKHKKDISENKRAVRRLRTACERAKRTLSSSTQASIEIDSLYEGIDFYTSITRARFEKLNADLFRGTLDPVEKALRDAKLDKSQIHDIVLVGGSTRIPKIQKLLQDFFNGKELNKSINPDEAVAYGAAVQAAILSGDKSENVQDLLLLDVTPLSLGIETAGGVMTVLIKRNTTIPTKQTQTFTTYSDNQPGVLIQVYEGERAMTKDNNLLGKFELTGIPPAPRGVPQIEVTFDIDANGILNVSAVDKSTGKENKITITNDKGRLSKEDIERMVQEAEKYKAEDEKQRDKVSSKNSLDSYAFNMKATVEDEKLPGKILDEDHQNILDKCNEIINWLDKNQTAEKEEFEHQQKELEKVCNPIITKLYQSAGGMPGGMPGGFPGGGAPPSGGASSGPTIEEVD

IBDV VP2 protein (natural protein)
viral titer of IBDV in DF-1 cells pretreated with 5 uM of the HSC70 inhibitor VER155008, 24-72 h after infection (untreated control 3.15-7.23), whole IBDV virus (log10TCID50/mL) [1]: 0 | VP2/GAPDH by western blot in DF-1 cells pretreated with anti-HSC70 antibody at 25, 12.5 and 6.25 ug/mL and infected with IBDV (normal IgG 3.329, no antibody 3.345) [2]: 1.43 VP2/GAPDH
